One series has as its system Tat (HIV-1?). The series is described as follows: competition.
The target in a further series is T1, TGK (TgoT Y409G E664K) (Thermococcus gorgonarius, UniProt P56689 SEQ:1-773, Y409G,E664K).
T1 sequence: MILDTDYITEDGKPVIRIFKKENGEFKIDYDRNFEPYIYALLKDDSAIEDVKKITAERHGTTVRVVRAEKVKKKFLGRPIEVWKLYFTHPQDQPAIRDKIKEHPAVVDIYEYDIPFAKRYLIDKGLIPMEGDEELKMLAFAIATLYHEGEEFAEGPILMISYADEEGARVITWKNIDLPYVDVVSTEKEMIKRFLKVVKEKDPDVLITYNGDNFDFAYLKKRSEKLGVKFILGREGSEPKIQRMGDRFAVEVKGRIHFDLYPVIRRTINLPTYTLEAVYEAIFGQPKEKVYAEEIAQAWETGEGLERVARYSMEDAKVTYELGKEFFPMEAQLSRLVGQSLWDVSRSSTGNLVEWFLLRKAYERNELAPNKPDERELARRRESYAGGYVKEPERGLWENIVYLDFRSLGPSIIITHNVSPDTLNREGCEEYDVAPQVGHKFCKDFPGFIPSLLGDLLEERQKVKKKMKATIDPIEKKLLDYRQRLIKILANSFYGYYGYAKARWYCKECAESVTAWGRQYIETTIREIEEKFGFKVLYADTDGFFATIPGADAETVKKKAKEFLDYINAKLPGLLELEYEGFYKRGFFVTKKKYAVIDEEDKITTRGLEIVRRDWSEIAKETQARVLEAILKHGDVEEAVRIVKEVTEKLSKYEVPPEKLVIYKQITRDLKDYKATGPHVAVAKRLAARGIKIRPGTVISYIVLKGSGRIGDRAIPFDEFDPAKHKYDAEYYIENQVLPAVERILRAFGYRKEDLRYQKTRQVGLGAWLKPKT
The series is described as follows: EMSA; second gate mutation vs parental E664; individual mutants and Kd values not stated; Thermopol, 1 mM EDTA. To be noted: label: 5'-FITC primer, 5'-biotin template, 5' template overhang. As to the method:
The reactions were mixed, heated to 94° C. for 30 sec and cooled at 0.1° C./sec to 4° C. before loading onto precooled 6% TBE gel (Invitrogen) and run for 1 h at 100V in precooled 1×TBE. Bands were quantified using a Typhoon Trio and ImageQuant and the shift fitted to y=(Bmax*x)/(Kd+x) using MatLab (The MathWorks Ltd).

Turning to miniTAR RNA, the IC50 in the series with Tat (HIV-1?) (IC50 of HNA aptamer T5S8-7 displacing Tat from immobilised miniTAR (CI95 1.3-2.8)) worked out at 1.9 nM; in the series with Tat (HIV-1?) (IC50 of RNA aptamer R06 displacing Tat from immobilised miniTAR (CI95 166-675)), 313 nM.

B1: K0 DNA primer / TempK4 (dsDNA)
DNA 1: GCACGGCAGCACGTG
DNA 2: ACTGCGATGACTGTACTCGTCTAGTAGCACTGCACGTGCTGCCGTGC
Consider B1, for which the binding result in the series with TGK (TgoT Y409G E664K) is reported as “binds”.

The values above are taken from patent publication US20130130320, “ENZYMES” (published 2013).
